From CN111253487A (GUANGDONG HEC PHARMACEUTICAL, dated 2020) come the findings set out here.

Assay [1] deals with T1, CD19胞外区蛋白 (abcam, ab234966, 氨基酸序列编号第20位至291位) (UniProt P15391 20-291).
T1 construct: range 20-291; also called 变性的CD19重组蛋白; CD19重组蛋白
T1 sequence (looked up): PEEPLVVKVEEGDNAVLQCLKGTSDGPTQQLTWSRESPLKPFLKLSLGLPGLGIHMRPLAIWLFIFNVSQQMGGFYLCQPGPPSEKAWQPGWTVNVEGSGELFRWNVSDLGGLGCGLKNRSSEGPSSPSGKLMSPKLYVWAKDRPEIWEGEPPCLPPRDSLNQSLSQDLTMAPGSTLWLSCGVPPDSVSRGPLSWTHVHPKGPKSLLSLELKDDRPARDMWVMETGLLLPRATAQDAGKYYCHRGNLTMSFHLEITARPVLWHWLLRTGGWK
The assay is described as follows: western blot on reduced, denatured CD19 extracellular domain, antibody at 20μg/mL. On the technique in general: A western blot detects proteins with antibodies after separation by electrophoresis.

For assay [2], the target named is T2, 表达在肿瘤细胞NALM-6表面的CD19 (UniProt P15391 20-556, limits assumed).
T2 construct: whole, on cells; also called CD19阳性细胞; NALM-6细胞
T2 sequence (looked up): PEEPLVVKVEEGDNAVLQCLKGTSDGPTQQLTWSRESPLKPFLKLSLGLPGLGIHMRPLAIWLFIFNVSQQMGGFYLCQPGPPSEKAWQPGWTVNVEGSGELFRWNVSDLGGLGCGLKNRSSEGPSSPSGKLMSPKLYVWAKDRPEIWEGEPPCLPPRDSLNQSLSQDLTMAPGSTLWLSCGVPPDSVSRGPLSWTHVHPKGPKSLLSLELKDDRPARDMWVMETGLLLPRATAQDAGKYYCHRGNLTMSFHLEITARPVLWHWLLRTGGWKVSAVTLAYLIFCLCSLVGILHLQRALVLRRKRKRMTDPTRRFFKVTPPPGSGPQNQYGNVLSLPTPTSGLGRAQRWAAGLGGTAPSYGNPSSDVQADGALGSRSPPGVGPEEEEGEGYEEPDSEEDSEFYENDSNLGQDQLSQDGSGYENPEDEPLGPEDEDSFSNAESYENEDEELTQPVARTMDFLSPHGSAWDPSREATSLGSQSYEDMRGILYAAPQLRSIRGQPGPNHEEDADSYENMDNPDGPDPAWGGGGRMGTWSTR
The assay can be described thus: flow cytometry on NALM-6 cells, FITC goat anti-mouse secondary.

The next assay addresses T3, CD19蛋白 (购自acro) (UniProt P15391 20-291).
T3 construct: also called 重组CD19蛋白 (ACRO, CD9-H52H2)
T3 sequence (looked up): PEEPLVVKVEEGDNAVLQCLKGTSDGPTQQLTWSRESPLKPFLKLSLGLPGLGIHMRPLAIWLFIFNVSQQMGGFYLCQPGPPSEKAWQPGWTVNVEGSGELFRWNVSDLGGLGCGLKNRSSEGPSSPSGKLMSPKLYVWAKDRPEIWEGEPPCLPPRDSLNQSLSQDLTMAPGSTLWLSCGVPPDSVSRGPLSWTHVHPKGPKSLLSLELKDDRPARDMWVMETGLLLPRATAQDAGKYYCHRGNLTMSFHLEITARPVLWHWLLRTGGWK
The assay is described as follows: ELISA, CD19 protein coated, antibody in twofold dilutions from 0.1mg/mL, OD450.

In assay [3] the target is T2, 表达在肿瘤细胞NALM-6表面的CD19. The assay can be described thus: flow cytometry of scFv on NALM-6 cells, PE goat anti-human secondary.

B1: 抗CD19鼠源抗体 10H10-1 (antibody, V domains shown)
VH: EVQLQQSGAELVRPGTSVKVSCKASGYAFTNYFIEWVIQRPGQGLEWIGVINPGNSNTNYNEKFKGKATLTADKSSSTAYMQLSSLTSDDSAVYFCARSGTTATTYAMDYWGQGTSVIVSS
VL: DIVMTQTPLSLPVSLGDQVSISCRSSQTLVYSNGDTYLEWYLQKPGQSPKLLIYKLSNRFSGVPDRFSGSGSGTDFTLKISRVESEDLGVYYCFQGSYFPFTFGAGTKLEIK
notes: Murine anti-CD19 antibody from a hybridoma
In the case of B1, the binding result (in assay [1]; in the assay with 表达在肿瘤细胞NALM-6表面的CD19 [2]; with CD19蛋白 (购自acro)) was “binds” throughout.

B2: 10H10-1 scFv (单链抗体10H10-1) (scFv)
scFv: DIVMTQTPLSLPVSLGDQVSISCRSSQTLVYSNGDTYLEWYLQKPGQSPKLLIYKLSNRFSGVPDRFSGSGSGTDFTLKISRVESEDLGVYYCFQGSYFPFTFGAGTKLEIKGGGGSGGGGSGGGGSEVQLQQSGAELVRPGTSVKVSCKASGYAFTNYFIEWVIQRPGQGLEWIGVINPGNSNTNYNEKFKGKATLTADKSSSTAYMQLSSLTSDDSAVYFCARSGTTATTYAMDYWGQGTSVIVSS
notes: It was detected with PE-labelled goat anti-human antibody, and no tag or Fc is stated; also called CD19 scfv抗体 10H10-1
For B2, in the assay with 表达在肿瘤细胞NALM-6表面的CD19 [3], the binding result was “binds”.
